Experimental data reported in patent US20060287509A1 (University of California, published 2006).
Substitutions are numbered along the chain they refer to.

B1: C6VLF (scFv)
chain: QVQLLQSGAELKKPGESLKISCKGSGYSFTSYWIAWVRQMPGKGLEYMGLIYPGDSDTKYSPSFQGQVTISVDKSVSTAYLQWSSLKPSDSAVYFCARHDVGYCSSSNCAKWPEYFQHWGQGTLVTVSSGGGGSGGGGSGGGGSQSVLTQPPSMSAAPGQKVTISCSGSSSNIGNNYVSWYQQFPGTAPKLLIHDNNKRPSGIPDRISGSKSGTSASLAISGLQSDDEADYYCAAWDDSLNGWVFGGGTKLTVLG
B2: C6VLD (scFv)
chain: QVQLLQSGAELKKPGESLKISCKGSGYSFTSYWIAWVRQMPGKGLEYMGLIYPGDSDTKYSPSFQGQVTISVDKSVSTAYLQWSSLKPSDSAVYFCARHDVGYCSSSNCAKWPEYFQHWGQGTLVTVSSGGGGSGGGGSGGGGSQSVLTQPPSVSAAPGQKVTISCSGTNSNIGNNYVSWYQQLPGTAPKLLIYTNDQRPSGVPDRFSGSKSGTSASLAISGLQSEDEADYYCAAWDDSLNGWMFGGGTKLTVLG
B3: C6VLE (scFv)
chain: QVQLLQSGAELKKPGESLKISCKGSGYSFTSYWIAWVRQMPGKGLEYMGLIYPGDSDTKYSPSFQGQVTISVDKSVSTAYLQWSSLKPSDSAVYFCARHDVGYCSSSNCAKWPEYFQHWGQGTLVTVSSGGGGSGGGGSGGGGSQSVLTQPPSVSAAAGQKVTISCSGSSSSIGRNYVSWNQQLPGTAPKLLIWRNNQRPSGVPDRFSGSKSGTSASLAISGVRSEDEADYYCASWDNSLSGWVFGGGTKLTVLG
B4: C6ML3-15 (scFv)
scFv: QVQLLQSGAELKKPGESLKISCKGSGYSFTSYWIAWVRQMPGKGLEYMGLIYPGDSDTKYSPSFQGQVTISVDKSVSTAYLQWSSLKPSDSAVYFCARHDVGYCSSSNCAKWPEYFQHWGQGTLVTVSSGGGGSGGGGSGGGGSQSVLTQPPSVSAAPGQKVTISCSGSSSNIGNNYVSWYQQLPGTAPKLLIYGHTNRPAGVPDRFSGSKSGTSASLAISGFRSEDEADYYCAAWDRPLWGWVFGGGTKLTVLG
notes: C6.5 with this VL CDR3; C-terminal myc and His6 tags
B5: C6ML3-6 (scFv)
scFv: B4 scFv with A235S, R238Y, P239S, W241S
notes: as for B4
B6: C6ML3-23 (scFv)
scFv: B4 scFv with A235S, R238H, P239S
notes: as for B4
B7: C6ML3-14 (scFv)
scFv: B4 scFv with R238D
notes: as for B4
B8: C6ML3-3 (scFv)
scFv: B4 scFv with A235T, R238Y, P239A, W241S
notes: as for B4
B9: C6ML3-4 (scFv)
scFv: B4 scFv with A235S, D237E, R238Y, P239S
notes: as for B4
B10: C6ML3-29 (scFv)
scFv: B4 scFv with R238G, P239T
notes: as for B4
B11: C6ML3-1 (scFv)
scFv: B4 scFv with R238Y, P239S
notes: as for B4
B12: C6ML3-13 (scFv)
scFv: B4 scFv with R238A, P239T
notes: as for B4
B13: C6ML3-2 (scFv)
scFv: B4 scFv with R238H, P239S, W241S
notes: as for B4
B14: C6ML3-19 (scFv)
scFv: B4 scFv with A235S
notes: as for B4
B15: C6ML3-8 (scFv)
scFv: B4 scFv with R238H, P239L, L240R
notes: as for B4
B16: C6ML3-12 (scFv)
scFv: B4 scFv with R238Y, P239S, L240R, W241S
notes: as for B4
B17: C6ML3-11 (scFv)
scFv: B4 scFv with R238Y, P239A
notes: as for B4
B18: C6ML3-10 (scFv)
scFv: B4 scFv with D237E, R238D, L240W, W241Y
notes: as for B4
B19: C6-9L1 (scFv)
chain: QVQLLQSGAELKKPGESLKISCKGSGYSFTSYWIAWVRQMPGKGLEYMGLIYPGDSDTKYSPSFQGQVTISVDKSVSTAYLQWSSLKPSDSAVYFCARHDVGYCSSSNCAKWPEYFQHWGQGTLVTVSSGGGGSGGGGSGGGGSQSVLTQPPSVSGAPGQWVTISCSGSSSNIGNNYVSWYQQLPGTAPKLLIYDNNKRPSGVPDRFSGSQSGTSASLAISGLRSEDEADYYCASWDYTLSGWVFGGGTKLTVLG
B20: C6-12L1 (scFv)
chain: B19 chain with S235A, T239S, L240R
B21: C6-B1D6 (scFv)
scFv: QVQLLQSGAELKKPGESLKISCKGSGYSFTSYWIAWVRQMPGKGLEYMGLIYPGDSDTKYSPSFQGQVTISVDKSVSTAYLQWSSLKPSDSAVYFCARHDVGYCTDRTCAKWPEWMYPWGQGTLVTVSSGGGGSGGGGSGGGGSQSVLTQPPSVSAAPGQKVTISCSGSSSNIGNNYVSWYQQLPGTAPKLLIYGHTNRPAGVPDRFSGSKSGTSASLAISGFRSEDEADYYCASWDYTLSGWVFGGGTKLTVLG
notes: C6MH3-B1 with the library D residues of C6MH3-D6
B22: C6-B1D2 (scFv)
chain: B21 scFv with M116L, Y117G, P118V
B23: C6-B1D1 (scFv)
chain: B21 scFv with M116L, Y117H, P118V
B24: C6-B1D5 (scFv)
chain: B21 scFv with Y117Q, P118M
B25: C6-B47D1 (scFv)
scFv: B21 scFv with T108S, M116L, Y117H, P118V
notes: C6MH3-B47 with the library D residues of C6MH3-D1
B26: C6-B47D3 (scFv)
scFv: B21 scFv with T108S, M116L, Y117D, P118N
notes: C6MH3-B47 with the library D residues of C6MH3-D3
B27: C6-B47D6 (scFv)
scFv: B21 scFv with T108S
notes: C6MH3-B47 with the library D residues of C6MH3-D6
B28: C6-B47D5 (scFv)
scFv: B21 scFv with T108S, Y117Q, P118M
notes: C6MH3-B47 with the library D residues of C6MH3-D5
B29: C6-B47D2 (scFv)
scFv: B21 scFv with T108S, M116L, Y117G, P118V
notes: C6MH3-B47 with the library D residues of C6MH3-D2

Biological target: T1, c-erbB-2 expressed on cells (SK-OV-3, SK-BR-3) (UniProt P04626 23-1255, limits assumed)
T1 construct: whole, on cells; also called native c-erbB-2 expressed on cells
Test: Scatchard after radioiodination, SK-OV-3 cells

For B1, which Kd is on record?
Its Kd is 79 nM.

Which Kd does the source give for B2 here?
Its Kd is 26 nM.

B3 was tested. Which Kd did it give?
Its Kd is 71 nM.

Biological target: T2, c-erbB-2 ECD with a Ser-Gly-His6 C-terminal fusion (UniProt P04626 23-652)
T2 construct: extracellular domain; expressed from CHO cells, IMAC purified; coupled to a CM5 chip, adsorbed to polystyrene, or biotinylated and captured on avidin; also called c-erbB-2 extracellular domain; biotinylated c-erbB-2 ECD
Test: SPR (BIAcore)

How did the koff turn out when B4 was run?
Its koff is 0.0013 s⁻¹.

And the kon?
The kon was 590000 M⁻¹ s⁻¹.

With B5 as the binder, how does the kon read?
Its kon is 590000 M⁻¹ s⁻¹.

For B6, which kon is on record?
The kon was 670000 M⁻¹ s⁻¹.

With B7 as the binder, how does the kon read?
Its kon is 770000 M⁻¹ s⁻¹.

Which kon does the source give for B8 here?
The kon was 460000 M⁻¹ s⁻¹.

With B9 as the binder, how does the kon read?
Its kon is 400000 M⁻¹ s⁻¹.

For B10, which kon is on record?
Its kon is 1.29e+06 M⁻¹ s⁻¹.

For B11, which kon is on record?
The kon was 300000 M⁻¹ s⁻¹.

B12 was tested. Which kon did it give?
The kon was 870000 M⁻¹ s⁻¹.

How did the kon turn out when B13 was run?
The kon was 710000 M⁻¹ s⁻¹.

How did the kon turn out when B14 was run?
Its kon is 670000 M⁻¹ s⁻¹.

B15 was tested. Which kon did it give?
Its kon is 650000 M⁻¹ s⁻¹.

How did the kon turn out when B16 was run?
Its kon is 450000 M⁻¹ s⁻¹.

Which kon does the source give for B17 here?
The kon was 610000 M⁻¹ s⁻¹.

With B18 as the binder, how does the kon read?
Its kon is 610000 M⁻¹ s⁻¹.

Biological target: T2, c-erbB-2 ECD with a Ser-Gly-His6 …
Test: competition ELISA: sFv preincubated with soluble ECD (0-100 nM), free sFv read on immobilized ECD

How did the IC50 turn out when B1 was run?
The IC50 was 7.5 nM.

For B2, which IC50 is on record?
Its IC50 is 5.8 nM.

For B3, which IC50 is on record?
The IC50 was 2.8 nM.

Biological target: T2, c-erbB-2 ECD with a Ser-Gly-His6 …
Test: from SPR (BIAcore) Kd values

B19 was tested. Which ΔΔGI did it give?
The ΔΔGI was 0.42 kcal/mol.

How did the ΔΔGI turn out when B20 was run?
The ΔΔGI was -0.18 kcal/mol.

With B21 as the binder, how does the ΔΔGI read?
The ΔΔGI was -0.16 kcal/mol.

With B22 as the binder, how does the ΔΔGI read?
Its ΔΔGI is -0.07 kcal/mol.

With B23 as the binder, how does the ΔΔGI read?
The ΔΔGI was -0.61 kcal/mol.

For B24, which ΔΔGI is on record?
The ΔΔGI was -0.4 kcal/mol.

With B25 as the binder, how does the ΔΔGI read?
Its ΔΔGI is -0.11 kcal/mol.

For B26, which ΔΔGI is on record?
Its ΔΔGI is 0.29 kcal/mol.

For B27, which ΔΔGI is on record?
The ΔΔGI was 0.17 kcal/mol.

Which ΔΔGI does the source give for B28 here?
The ΔΔGI was -0.01 kcal/mol.

B29 was tested. Which ΔΔGI did it give?
The ΔΔGI was 0.62 kcal/mol.
